Data from patent publication US20210093714A1, “Combination and method for inhibiting the cancer cells” (NATIONAL TAIWAN UNIVERSITY, priority 2013, published 2021).

Tests used:
[1] = target: T1, EGFR (Homo sapiens, UniProt P00533); assay: FACS of membranous association between CCN2 and EGFR; type: cell-based; settings: CL1-5 and A549; rCCN2 100 ng/mL; FIG. 2B
T1 construct: endogenous in cells; host or cells: CL1-5 and A549 human lung adenocarcinoma cell lines
Protocol: After washing, cells were stained with an FITC-labelled goat anti-rabbit secondary antibody (Santa Cruz Biotechnology) for 30 min in the dark. Analysis was then conducted with an FACS Calibur cytometer (Collaborative Biomedical, BD Biosciences).
In this embodiment, the concentration thereof is about 100 ng/mL.

[2] = system: EGFR; assay: Immunoprecipitation and in vitro binding assay of CCN2 and EGFR; design: species or system human; settings: A549; FIG. 2C
Protocol: CCN2 transfectants were seeded overnight and incubated in serum-free media for 24 h. For immunoprecipitations, cells were lysed in an RIPA buffer (150 mM NaCl, 50 mM Tris-base, 5 mM EDTA, 1% NP-40, and 0.25% deoxycholate; pH 7.4). Protein concentrations were determined using the BCA protein assay kit (Pierce, Rockford, Ill., USA). Lysate was incubated for 2 h at 4[…] with gentle rotation with rabbit polyclonal antibodies for human EGFR, CCN2, or Src immobilized onto protein A—sepharose beads (Santa Cruz Biotechnology, Santa Cruz, Calif., USA). Beads were washed twice with an IP buffer (137 mM NaCl, 2.7 mM KCl, 1 mM MgCl2, 1 mM CaCl2, 1% NP-40, 10% glycerol, 1 mg/ml bovine serum albumin, and 20 mM Tris; pH 8.0), boiled in a sodium dodecyl sulfate-polyacrylamide gel electrophoresis (SDS-PAGE) sample buffer, and centrifuged (12000×g, 4° C. for 15 min).
The recombinant proteins rCCN2 (BioVendor Com. Heidelberg, Germany), rEGFR, and rEGF (R&D Techne Corporation) ([…]) were added in binding buffer (50 mM sodium phosphate, pH 7.5, 500 mM NaCl, and I% Nonidet P-40) and incubated with gentle rotation at 4° C. for 2 h. Thereafter, crosslinks were reversed by boiling in an SDS-PAGE sample buffer (containing 0.1M dithiothreitol (DTT)) before loading on SDS-PAGE gels for immunoblotting analysis. […]

[3] = system: ERK; assay: Western blot of ERK phosphorylation; type: cell-based, human; settings: CL1-5, A549 and CL1-0/siCCN2; with increasing time; FIG. 3A
Protocol: (§1) Proteins ([…]) were separated by SDS-PAGE and transferred to a polyvinylidene difluoride membrane (Immobilon-P membrane; Millipore) by electrotransfer. The blot was blocked in a solution of 5% skim milk and 0.1% Tween 20 in PBS. Thereafter, membrane-bound proteins were probed with the following primary antibodies: CCN2, DAPK, phosphorylated ERK, ERK-1, phosphorylated Akt, Akt, TrkA, phosphorylated-Src, Src, b-actin, a-tubulin (Santa Cruz Biotechnology), p-EGFR, and EGFR (Cell Signaling Technology, Danvers, MA, USA). The membrane was washed and then incubated with HRP-conjugated secondary antibodies for 30 min. Enhanced chemiluminescence reagents (Amersham Pharmacia Biotech, Piscataway, N.J., USA) were employed to depict the protein bands on membranes. The light was captured on Kodak X-Omat Blue autoradiography film (PerkinElmer Life Sciences, Boston, Mass., USA).
This embodiment focuses on the effect of CCN2 on the EGFR-induced signaling pathways. At first, the effect of exogenous CCN2(rCCN2) on the MAPK/AKT signaling pathways in the lung adenocarcinoma cell lines, CL1-5, A549 and CL1-0/siCCN2 was observed by western blot analysis, the results shown in FIG. 3A.

[4] = target: T1, EGFR; assay: Western blot of EGFR ubiquitination; type: cell-based; settings: CL1-5; FIG. 4C
Protocol: as §1
CCN2 transfectants were seeded overnight and incubated in serum-free media for 24 h. For immunoprecipitations, cells were lysed in an RIPA buffer (150 mM NaCl, 50 mM Tris-base, 5 mM EDTA, 1% NP-40, and 0.25% deoxycholate; pH 7.4). Protein concentrations were determined using the BCA protein assay kit (Pierce, Rockford, Ill., USA). […]

[5] = system: lung adenocarcinoma cell line, CL1-5; assay: Anoikis assay (DNA fragmentation); type: cell-based, human; settings: FIG. 5A
Description: This embodiment focuses on whether CCN2 can induce anoikis in lung adenocarcinoma cells in vitro and in vivo. At first, CCN2 induces anoikis which is induced by CCN2 in lung adenocarcinoma cells in vitro was observed by anoikis assay, the results shown in FIGS. 5A to 5C.

[6] = system: DAPK; assay: Western blot of DAPK expression; type: cell-based, human
Protocol: as §1
This embodiment focuses on the downstream signaling in CCN2-induced anoikis. At first, the effect of DAPK which can up-regulate CCN2 played on CCN2 induced anoikis and metastasis inhibition of lung adenocarcinoma cell lineswas observed by RT-PCR, dual luciferase reporter assay and western blot analysis, the results shown in FIGS. 6A to 6C. […] In addition, in the lung adenocarcinoma cell line, CL1-0/siCCN2, DAPK expression is suppressed, and DAPK expression also be suppressed with increasing dose (0 μg, 1μg, 3μg), (as shown on the top right in the FIG. 6C). Therefore, CCN2 induced DAPK expression in time- and dose-dependent manners.

[7] = system: lung adenocarcinoma cell line, CL1-0/siCCN2; assay: Anoikis assay with DAPK siRNA; type: cell-based, human; settings: CL1-0/siCCN2 in suspension, DAPK expression decreased due to siRNA; 24 h; FIG. 6C
[8] = system: mutated-type EGFR (L858R); assay: Western blot of EGFR expression, H1299 mutated-type EGFR; type: cell-based, human; settings: H1299 (single mutation point, L858R); 0 minutes to 4 hours; FIG. 7
Protocol: as §1
(§2) First, the effect of rCCN2 on the wild-type EGFR […] lung adenocarcinoma cell line, the mutated-type EGFR H1299 lung adenocarcinoma cell line, and the mutated-type EGFR H1975 lung adenocarcinoma cell line was observed by western blot analysis, the results shown in FIG. 7(Cell lysates of H1299 transfectants or H1975 cells were immunoblotted with anti-EGFR).

[9] = system: mutated-type EGFR (L858R and T790M); assay: Western blot of EGFR expression, H1975; type: cell-based, human; settings: 0 to 4 hours, FIG. 7
Protocol: as §1, §2

[10] = system: CL1-5 lung adenocarcinoma cell lines; assay: MTT Assay, cell survival of CL1-5, rCCN2 and cetuximab; type: cell-based, human; settings: attached CL1-5; rCCN2 alone 0 to 200 ng/mL; FIG. 8F

B1: Connective tissue growth factor (CCN2), wild-type full length (ligand, human, UniProt P29279 27-349, looked up)
chain: QNCSGPCRCPDEPAPRCPAGVSLVLDGCGCCRVCAKQLGELCTERDPCDPHKGLFCHFGSPANRKIGVCTAKDGAPCIFGGTVYRSGESFQSSCKYQCTCLDGAVGCMPLCSMDVRLPSPDCPFPRRVKLPGKCCEEWVCDEPKDQTVVGPALAAYRLEDTFGPDPTMIRANCLVQTTEWSACSKTCGMGISTRVTNDNASCRLEKQSRLCMVRPCEADLEENIKKGKKCIRTPKISKPIKFELSGCTSMKTYRAKFCGVCTDGRCCTPHRTTTLPVEFKCPDGEVMKKNMMFIKTCACHYNCPGDNDIFESLYYRKMYGDMA
notes: also called Recombinant CCN2; exogenous CCN2
detection of membranous CCN2 [1]: enhanced the detection of membranous CCN2
physical association between CCN2 and EGFR [2]: there is a physically association
phosphorylation of ERK (p-ERK1/2) [3]: gradually reduce the phosphorylation of ERK
EGFR ubiquitination degree [4]: increase the EGFR ubiquitination degree
DNA fragmentation ([5]; attached CL1-5, rCCN2 0, 20, 100, 200 ng/mL): no obvious difference
DNA fragmentation ([5]; suspended CL1-5, rCCN2 with higher concentration): increased
DAPK expression ([6]; CL1-5, A549 and CL1-0/siCCN2, increasing time 0 minutes to 12 hours, FIG. 6B): promote DAPK expression
DAPK expression ([6]; CL1-5, increasing dose (0 μm, 1μg, 3 μg), FIG. 6C): promote DAPK expression
rCCN2 induced DNA fragmentation [7]: decreased
expression of EGFR [8]: inhibit the expression of EGFR more significantly
expression of EGFR [9]: inhibit the expression of EGFR more significantly
cell survival [10]: not significantly reduced
